This is an account of results in publication PMC7866087, “Evaluation of Computationally Designed Peptides against TWEAK, a Cytokine of the Tumour Necrosis Factor Ligand Family” (International Journal of Molecular Sciences, 2021).

The target in assay [1] is T1, human His6-TWEAK protein (Homo sapiens, UniProt O43508).
T1 construct: purchased R&D Systems
T1 sequence (O43508 97-249 limits assumed): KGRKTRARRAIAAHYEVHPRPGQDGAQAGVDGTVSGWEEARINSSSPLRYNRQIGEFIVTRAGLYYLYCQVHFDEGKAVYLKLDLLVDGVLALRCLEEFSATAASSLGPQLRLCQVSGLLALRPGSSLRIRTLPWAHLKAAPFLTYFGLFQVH
Put plainly: SPR binding of peptides to immobilized His6-TWEAK. As to conditions: for binding affinity for immobilized TWEAK: negative controls, global curve fit not attempted. The text has this:
SPR biosensor interaction analysis, a label-free screening approach, was used for real-time monitoring of the kinetics and affinity of peptide hits to TWEAK previously identified by cell-based screening. Peptides from pools 1 and 5 were selected both as positive (49, 30, 35 and 43) and negative hits (1 and 42). For our purposes, TWEAK was chosen as ligand, while peptides were chosen as analytes and passed across ligand-derivatized surface. Nitrilotriacetic acid-coated sensor chips (NTA chip) and a coupling approach that results in the capture of a His6-protein in a non-random orientation by the His6 epitope prior to direct free amine-based covalent coupling was used for histidine-tagged TWEAK immobilization.
After chip validation, peptides selected on our cell-based microarray screening were tested.
For each titration, a zero-analyte surface as a control was subtracted from test sensorgram as well as non-specific binding to the blank flow cell without protein; and the chip surface was regenerated in order to remove any remaining analyte. The black curves show the experimental data, while the overlaid red lines represent a global fit of the entire data set to a 1:1 Langmurian interaction model. The fitting process provided both kinetic association and dissociation rate constants (Ka and Kd), as well as equilibrium dissociation constant (KD) values indicated in Figure 6.
Binding assays were performed at 25 °C in a Biacore 3000 instrument (GE Healthcare, Uppsala, Sweden) using nitrilotriacetic (NTA) sensor chips (GE Healthcare) and HBS-EP (0.01 M HEPES pH 7.4, 0.15 M NaCl, 3 mM EDTA, 0.005 % v/v Surfactant P20) as running buffer. Histidine-tagged human TWEAK (His6-TWEAK) protein (R&D Systems, Minneapolis, MN, USA) was covalently immobilized on the sensor surface using a capture coupling method. Briefly, the NTA surface was first stabilized by injection of regeneration buffer (20 μL EDTA-containing running buffer at 20 μL/min) followed by Ni^2+ binding to the surface (40 μL of 500 μM NiCl2 in running buffer at 20 μL/min). The carboxymethyl dextran surface was then activated for primary amine coupling by injecting coupling solution (30 μL of a 1:1 N-hydroxysuccinimide (NHS)/1-ethyl-3-[3-(dimethylamino)-propyl]carbodiimide hydrochloride (EDC) mixture at 5 μL/min). His6-TWEAK protein in pH 7.4 running buffer was then injected over the surface (60 μL of 10 μg/mL His6-TWEAK at 5 μL/min). To block uncoupled primary amines on the sensor surface, ethanolamine was passed over the surface (35 μL 1M ethanolamine at 5 μL/min). Ligand surfaces were finally conditioned with a 20 µL injection of regeneration solution containing 350 mM EDTA at 20 μL/min. Immobilization levels ranged from 1500 to 7000 resonance units (RUimmob) to test different ligand densities. A blank flow cell on the chip was created by simple injection of 20 μL of regeneration buffer injected over the sensor surface.
Binding experiments using a monoclonal anti-TWEAK antibody (Abcam ref. 199405, Cambridge, UK) were run to ascertain adequate functionalization of the immobilized surface. Selected synthetic TWEAK-Fn14 inhibitory peptides at two-fold serial dilutions from 800 µM to 0 µM in running buffer were flown over the chip for 5 min at 35 µL/min. The dissociation phase was monitored for 10 min at the same flow rate and followed by a regeneration step with 10 µL of 18 mM NaOH. Specific binding responses for each channel were obtained by double referencing; subtracting non-specific binding to the blank flow cell plus an internal reference standard, namely buffer injection response. Each sample was run in triplicate. The experimental data were fitted to a 1:1 Langmuir binding model by the BIAevaluation software version 4.1 (GE Healthcare, Uppsala, Sweden).

The test system of assay [2] is BRV5 cells, NIK expression. Put plainly: Time-course RT-PCR of NIK (MAP4K4), BRV5. The class given is cell-based, human. As to conditions: TWEAK, 6 to 24 h. The text has this: The final aspect to consider in the characterization of BRV5 cells prior to the screening of peptides was to assess when the signalling pathway mediated by TWEAK-Fn14 will be at its peak of activity. To that end, we monitored the level of expression of the primary kinase NIK (MAP4K4) at different time points. It has been reported that transcriptional activation of Fn14 would be operated mainly by the NF-κB non-canonical pathway, through inducing the primary kinase NIK (MAP4K4) that phosphorylates IKKα [26]. Thus, we assessed the level of expression of NIK from 6 to 24 h after cells were treated with TWEAK in a time-course RT-PCR (Figure 2). […] From these experiments we concluded that TWEAK-Fn14 pathway is mainly activated at 6 h after treating cells, and thus we designed out experiments to check the inhibitory ability of the peptides at this specific time point.
Figure 2 NIK activation in brain metastatic cells. Metastatic cells were primed with TWEAK in a time-course RT-PCR experiment. […] Bars and error bars represent the average and standard deviation as calculated from three replicates respectively.

Where [3] appears, read: 25 °C, HBS-EP pH 7.4, Biacore 3000, NTA chip, 1:1 Langmuir global fit, representative of at least three independent experiments.

Consider 1: GNGTDDNSGTSY [Peptide 1], for which the “binding affinity for immobilized TWEAK” value in assay [1] was “negligible binding affinity”.

For the molecule 42: YNGHVKDD [Peptide 42], in assay [1], the “binding affinity for immobilized TWEAK” value is reported as “negligible binding affinity”. Take SWYDHMAGDSSY [Peptide 35]: in assay [1] (setting [3]), the ka came out at 2.06 M⁻¹ s⁻¹ and the kd is 0.00285 s⁻¹.

B1: tumour necrosis factor-like weak inducer of apoptosis (protein, UniProt O43508 94-249, looked up)
Tumor necrosis factor ligand …: SAPKGRKTRARRAIAAHYEVHPRPGQDGAQAGVDGTVSGWEEARINSSSPLRYNRQIGEFIVTRAGLYYLYCQVHFDEGKAVYLKLDLLVDGVLALRCLEEFSATAASSLGPQLRLCQVSGLLALRPGSSLRIRTLPWAHLKAAPFLTYFGLFQVH
On to B1, for which, in assay [2], the NIK expression entry is “increased in TWEAK stimulated BRV5 cells after 6 h of treatment, decreasing at 12 h and partially recovered at 24 h”.
